Test results from US20090130105A1 (Biogen, published 2009).

B1: M13-C06 antibody (antibody, V domains shown)
VH: EVQLLESGGGLVQPGGSLRLSCAASGFTFSIYRMQWVRQAPGKGLEWVSGISPSGGTTWYADSVKGRFTISRDNSKNTLYLQMNSLRAEDTAVYYCARWSGGSGYAFDIWGQGTMVTVSS
VL: DIQMTQSPLSLSASVGDRVTITCQASRDIRNYLNWYQQKPGKAPKLLIYDASSLQTGVPSRFGGSGSGTDFSFTIGSLQPEDIATYYCQQFDSLPHTFGQGTKLEIK
notes: Fully human full-length antibody (ATCC PTA-7444); also called M13.C06.G4.P.agly; M13-C06.G4P.agly
B2: M13-C06 Fab (Fab, V domains shown)
VH: EVQLLESGGGLVQPGGSLRLSCAASGFTFSIYRMQWVRQAPGKGLEWVSGISPSGGTTWYADSVKGRFTISRDNSKNTLYLQMNSLRAEDTAVYYCARWSGGSGYAFDIWGQGTMVTVSS
VL: DIQMTQSPLSLSASVGDRVTITCQASRDIRNYLNWYQQKPGKAPKLLIYDASSLQTGVPSRFGGSGSGTDFSFTIGSLQPEDIATYYCQQFDSLPHTFGQGTKLEIK
notes: Fab made by enzymatic digestion of the IgG

Assays:
[1] = target: T1, hIGF-1R-Fc mutant SD103 (D461A, V462T) (human, UniProt P08069 31-933); experiment: SPR, immobilized antibody
T1 construct: not shown: human IgG1 Fc, C-terminal tag
T1 sequence (P08069 31-933 D491A/V492T): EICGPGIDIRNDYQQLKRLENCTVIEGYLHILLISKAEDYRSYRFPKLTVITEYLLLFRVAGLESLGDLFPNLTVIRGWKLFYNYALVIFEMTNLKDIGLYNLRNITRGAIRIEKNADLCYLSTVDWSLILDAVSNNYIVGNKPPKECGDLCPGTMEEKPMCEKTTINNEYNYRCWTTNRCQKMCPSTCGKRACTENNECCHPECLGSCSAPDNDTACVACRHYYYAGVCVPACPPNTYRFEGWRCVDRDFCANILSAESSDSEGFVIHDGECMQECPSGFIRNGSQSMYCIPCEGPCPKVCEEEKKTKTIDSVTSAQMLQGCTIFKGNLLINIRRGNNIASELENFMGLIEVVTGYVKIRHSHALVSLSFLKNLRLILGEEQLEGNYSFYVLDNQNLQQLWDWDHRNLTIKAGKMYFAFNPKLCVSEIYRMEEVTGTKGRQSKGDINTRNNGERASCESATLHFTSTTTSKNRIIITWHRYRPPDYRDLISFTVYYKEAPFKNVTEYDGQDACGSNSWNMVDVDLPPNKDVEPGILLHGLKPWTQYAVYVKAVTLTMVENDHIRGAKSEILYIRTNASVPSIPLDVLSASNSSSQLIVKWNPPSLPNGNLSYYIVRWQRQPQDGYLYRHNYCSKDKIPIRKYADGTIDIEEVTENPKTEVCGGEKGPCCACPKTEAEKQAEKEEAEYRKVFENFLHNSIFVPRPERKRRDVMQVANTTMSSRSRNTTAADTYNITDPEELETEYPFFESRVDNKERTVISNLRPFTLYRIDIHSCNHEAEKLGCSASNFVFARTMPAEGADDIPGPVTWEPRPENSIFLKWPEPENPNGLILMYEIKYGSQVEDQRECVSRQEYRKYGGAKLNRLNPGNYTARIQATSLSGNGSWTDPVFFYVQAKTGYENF
Description: (§1) Surface plasmon resonance (SPR) experiments were performed on a Biacore 3000 instrument set to 25° C. […] The antibody sensorchip surfaces were prepared by injecting each antibody (diluted 100 μg/mL in 10 mM Acetate, pH 4.0) over EDC/NHS-activated sensorchip surfaces according to the standard protocol of the manufacturer. […] Both hIGF-1R-Fc and mIGF-1R-Fc proteins oligomerize due to the incorporation of two separate homodimeric regions (IGF-1R and IgG1-Fc). […] After, completion of the receptor-Fc loading step, flow rates were elevated to 5 μl/min. […] Dissociation was measured for 7 minutes after the antibody injections were complete. Finally, the flow rate was elevated to 30 μL/min and the chip surfaces were regenerated by 2×10 μL injections of 0.1 M glycine, pH 2.

[2] = target: T2, human IGF-1R on H322M non-small cell lung cancer cells (human, UniProt P08069 31-1367); experiment: flow cytometry on H322M cells
T2 construct: Endogenous receptor of the tumor cell line; also called cell surface IGF-1R
T2 sequence (P08069 31-1367, stated change not applied): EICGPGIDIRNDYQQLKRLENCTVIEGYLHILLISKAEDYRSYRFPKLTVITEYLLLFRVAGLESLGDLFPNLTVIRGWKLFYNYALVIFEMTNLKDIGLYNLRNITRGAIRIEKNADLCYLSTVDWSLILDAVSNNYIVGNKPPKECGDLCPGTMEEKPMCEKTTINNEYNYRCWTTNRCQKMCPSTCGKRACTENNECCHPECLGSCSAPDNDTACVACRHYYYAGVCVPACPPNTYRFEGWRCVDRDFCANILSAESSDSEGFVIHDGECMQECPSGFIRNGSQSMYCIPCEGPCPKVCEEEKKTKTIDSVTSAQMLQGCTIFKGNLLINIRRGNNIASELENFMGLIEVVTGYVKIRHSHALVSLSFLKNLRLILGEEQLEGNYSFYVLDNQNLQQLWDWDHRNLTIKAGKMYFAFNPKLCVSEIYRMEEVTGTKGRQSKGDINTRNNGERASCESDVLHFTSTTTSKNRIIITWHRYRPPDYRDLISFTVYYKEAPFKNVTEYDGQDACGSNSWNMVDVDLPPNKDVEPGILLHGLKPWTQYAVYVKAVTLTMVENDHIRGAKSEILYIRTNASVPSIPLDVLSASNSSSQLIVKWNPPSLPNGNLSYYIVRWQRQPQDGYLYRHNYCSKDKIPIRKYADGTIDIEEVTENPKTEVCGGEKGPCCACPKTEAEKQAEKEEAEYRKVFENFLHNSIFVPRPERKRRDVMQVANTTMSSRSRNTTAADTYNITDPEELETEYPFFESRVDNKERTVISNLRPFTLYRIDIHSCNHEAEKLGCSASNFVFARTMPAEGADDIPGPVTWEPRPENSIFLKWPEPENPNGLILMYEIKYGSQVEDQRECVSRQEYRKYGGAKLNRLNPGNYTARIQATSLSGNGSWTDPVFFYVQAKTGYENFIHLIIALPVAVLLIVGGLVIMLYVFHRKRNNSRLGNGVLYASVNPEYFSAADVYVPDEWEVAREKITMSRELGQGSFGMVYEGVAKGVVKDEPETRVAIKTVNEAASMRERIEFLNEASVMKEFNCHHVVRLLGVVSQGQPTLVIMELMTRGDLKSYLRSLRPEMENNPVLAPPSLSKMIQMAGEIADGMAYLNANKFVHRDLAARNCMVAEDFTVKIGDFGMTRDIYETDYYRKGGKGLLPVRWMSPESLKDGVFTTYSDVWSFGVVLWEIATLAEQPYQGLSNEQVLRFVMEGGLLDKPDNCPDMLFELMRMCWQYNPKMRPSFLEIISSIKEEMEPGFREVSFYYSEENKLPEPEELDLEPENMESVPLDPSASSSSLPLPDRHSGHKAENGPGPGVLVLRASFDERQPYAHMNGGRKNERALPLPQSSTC
Description: (§2) Cell lines were routinely cultured no greater than 20 passages. Flow cyotometric analysis of antibody binding to human cancer cells. Cells were lifted with cell dissociation buffer (Gibco catalog #13151-014), counted, washed and adjusted to 5×10⁶ cells/ml. Cells (2.5×10⁵; 50 uL) were added to each well of a 96-well round bottom plate (Costar #3799). Purified antibodies were tested at a starting concentration of 300 nM with serial half-log dilutions in FACS buffer. FACS buffer used throughout the assay was PBS (without Ca++/Mg++) containing 5% FBS. Samples were incubated on ice for 30 minutes, washed 3× with 200 uL FACS buffer and centrifuged at 1200 rpm for 3 minutes at 4° C. C2B8 (rituximab, IgG1) was used as a negative control. […] Samples were incubated for an additional 30 minutes on ice, shielded from light. Cells were washed as described above and resuspended in 100 μl FACS buffer containing propidium iodide (PI) for dead cell exclusion (BD Pharmingen, catalog# 51-66211E or 556463; use at 1:500 final in FACS buffer). Samples were run in triplicate using the FACSArray flow cytometer (Becton Dickinson) with 5000 live events collected per sample. Data analysis was performed using the GraphPad Prism version 5.0 software (GraphPad Software Inc., 11452 El Camino Real #215, San Diego, Calif. 92130). Results. […]

[3] = target: T3, sIGF-1R(1-903) (human, UniProt P08069 31-933); experiment: ITC series titration, C06 MAb first
T3 construct: also called soluble IGF-1R ectodomain
T3 sequence (P08069 31-933): as the sequence (P08069 31-933 D491A/V492T) above, with A461D, T462V counted along it
Description: The protein solutions were prepared as described above for the MAb binding experiments. All ITC experiments were performed on an ITC₂₀₀ microcalorimeter (MicroCal, LLC) at 25° C. […] IGF-1R bispecific antibodies. A four minute equilibration period was used between all injections with an initial delay of 60 seconds. Numerical integration of the data was performed using the ITC data analysis software supplied by MicroCal (Origin). ΔHA° (T) values were calculated based on the difference between the average heat liberated/absorbed during the binding phase of the injections and the average heat of dilution found once the receptor, IGF-1R, was saturated with MAb or BsAb.
Both the dimeric receptor and the bivalent MAbs contain two potential binding sites.

[4] = target: T2, human IGF-1R on H322M non-small cell …; experiment: flow cytometry on H322M cells, anti-human Fab PE secondary (FIG. 55A)
Description: as §2

[5] = target: T4, human IGF-1R(1-903)-Fc (human, UniProt P08069 31-933); experiment: IGF-1 blocking ELISA at 80 nM IGF-1 His on biotinylated hIGF-1R-Fc
T4 construct: also called hIGF-1R-Fc; SDWT; not shown: human IgG1 Fc, C-terminal tag
T4 sequence (P08069 31-933): as the sequence (P08069 31-933 D491A/V492T) above, with A461D, T462V counted along it
Description: The dilutions were added to the plates in duplicate at 100 μL/well and the plates were incubated at RT for 1 hour. The plates were then washed four times with 200 μL/well PBST. An HRP-conjugated anti-Histag antibody (Penta-His HRP Conjugate, QIAGEN, Cat. No. 1014992) was diluted 1:1000 in PBST and added to plates at 100 μL/well, and the plates were incubated at RT for one hour. The plates were then washed four times with 200 μL/well PBST. SureBlue Reserve TMB Microwell Peroxidase Substrate (KPL, Cat. No. 53-00-01) was added to plates at 100 μL/well followed by 1% phosphoric acid at 100 μL/well once the desired reaction was observed. The absorbance of each well was determined at 450 nm, and the results were normalized and plotted against the log of antibody concentration.
Ligand Blocking Properties.

[6] = target: T4, human IGF-1R(1-903)-Fc; experiment: ELISA, blocking of IGF-2 His (640 nM by the table head) on biotinylated hIGF-1R-Fc
[7] = target: T4, human IGF-1R(1-903)-Fc; experiment: IGF-2 blocking ELISA: antibody titrated in 640 nM IGF-2 His on biotinylated hIGF-1R-Fc on streptavidin plates, bound ligand detected with anti-His-HRP
[8] = target: T5, hIGF-1R-Fc mutant SD102 (E459A, S460A) (human, UniProt P08069 31-933); experiment: SPR, Fab over captured mutant
T5 construct: not shown: human IgG1 Fc, C-terminal tag
T5 sequence (P08069 31-933 E489A/S490A): as the sequence (P08069 31-933 D491A/V492T) above, with E459A, S460A, A461D, T462V counted along it
Description: as §1

[9] = target: T1, hIGF-1R-Fc mutant SD103 (D461A, V462T); experiment: SPR, Fab over captured mutant
Description: as §1

[10] = target: T6, hIGF-1R-Fc mutant SD104 (H464A) (human, UniProt P08069 31-933); experiment: SPR, Fab over captured mutant
T6 construct: not shown: human IgG1 Fc, C-terminal tag
T6 sequence (P08069 31-933 H494A): as the sequence (P08069 31-933 D491A/V492T) above, with A461D, T462V, H464A counted along it
Description: as §1

[11] = target: T7, hIGF-1R-Fc mutant SD108 (H480E) (human, UniProt P08069 31-933); experiment: SPR, Fab over captured mutant
T7 construct: not shown: human IgG1 Fc, C-terminal tag
T7 sequence (P08069 31-933 H510E): as the sequence (P08069 31-933 D491A/V492T) above, with A461D, T462V, H480E counted along it
Description: as §1

[12] = target: T8, hIGF-1R-Fc mutant SD109 (Y482A, R483W) (human, UniProt P08069 31-933); experiment: SPR, Fab over captured mutant
T8 construct: not shown: human IgG1 Fc, C-terminal tag
T8 sequence (P08069 31-933 Y512A/R513W): as the sequence (P08069 31-933 D491A/V492T) above, with A461D, T462V, Y482A, R483W counted along it
Description: as §1

[13] = target: T9, hIGF-1R-Fc mutant SD113 (E570A, I571T) (human, UniProt P08069 31-933); experiment: SPR, Fab over captured mutant
T9 construct: not shown: human IgG1 Fc, C-terminal tag
T9 sequence (P08069 31-933 E600A/I601T): as the sequence (P08069 31-933 D491A/V492T) above, with A461D, T462V, E570A, I571T counted along it
Description: as §1

| Binder | binding result [1] | EC50 [2] | ΔH° [3] | EC50 [4] | IC50 (read off the curve) [5] | IC50 [6] | IC50 (read off the curve) [7] | binding result [8] | binding result [9] | binding result [10] | binding result [11] | binding result [12] | binding result [13] |
| --- | --- | --- | --- | --- | --- | --- | --- | --- | --- | --- | --- | --- | --- |
| B1 | no binding | < 1 nM | -21.9 kcal/mol | 0.2 nM | ~1 nM | 1.9 nM | ~1 nM |  |  |  |  |  |  |
| B2 |  |  |  |  |  |  |  | no binding (tested: up to 10 nM Fab) | no binding (tested: up to 10 nM Fab) | no binding (tested: up to 10 nM Fab) | no binding (tested: up to 10 nM Fab) | no binding (tested: up to 10 nM Fab) | no binding (tested: up to 10 nM Fab) |
